The target of this test is T1, Gli3C′ΔXhoI (Myc-tagged C-terminal deleted XhoI Gli 3 truncate) (human, UniProt P10071 1-547).
T1 construct: also called Gli3C'XhoI
T1 sequence: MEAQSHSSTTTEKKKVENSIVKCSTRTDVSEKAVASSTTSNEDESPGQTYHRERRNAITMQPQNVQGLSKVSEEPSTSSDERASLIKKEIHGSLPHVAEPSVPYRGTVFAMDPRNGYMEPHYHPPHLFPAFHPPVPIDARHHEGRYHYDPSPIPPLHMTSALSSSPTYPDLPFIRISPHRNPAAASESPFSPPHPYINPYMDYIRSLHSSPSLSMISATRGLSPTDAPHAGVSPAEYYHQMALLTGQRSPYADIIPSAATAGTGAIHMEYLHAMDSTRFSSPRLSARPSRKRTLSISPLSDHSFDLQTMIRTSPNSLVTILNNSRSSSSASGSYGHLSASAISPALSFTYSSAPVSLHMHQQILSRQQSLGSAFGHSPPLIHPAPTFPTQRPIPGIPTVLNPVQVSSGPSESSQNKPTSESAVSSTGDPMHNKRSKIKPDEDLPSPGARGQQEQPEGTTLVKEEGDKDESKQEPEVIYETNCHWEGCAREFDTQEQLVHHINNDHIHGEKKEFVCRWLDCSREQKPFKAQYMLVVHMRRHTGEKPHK
Kind of test: co-immunoprecipitation (anti-Flag IP, anti-Myc blot), transfected cells. How it is done: Immunoprecipitation and immunoblotting: The assay was performed as previously described ( Liu et al, 1997, Genes Dev. 11:3157-3167). RIB/L17 or COS1 cells were cotransfected with Myc-tagged full-length or deletion derivatives of Gli3 or Gli1 along with a Flag-tagged Smad construct by the DEAE-dextran method. BMP or TGFP stimulation was by cotransfection of an activated BMP or TGFβ receptor and treatment with BMP (2 nM) or TGFβ (500 pM) for 1 hour. Cells were lysed in TNE buffer (10 mM Tris (pH7.8), 150 mM NaCl, 1 mM EDTA, 1% NP40) in the presence of protease inhibitors. Immunoprecipitation was performed by incubation with the M2 anti-Flag antibody (Eastman Kodak) for 1 hour. Immunoprecipitates were separated in an 8% SDS-PAGE and transferred to a PVDF membrane. Inmmunoblotting was carried out by using the 9E10 anti-Myc antibody (ascites), followed by incubation with HRP-conjugated goat anti-mouse antibodies and detected by chemiluminescence (Amersham).

B1: Flag-Smad1 (other, UniProt Q15797 1-465, looked up)
chain: MNVTSLFSFTSPAVKRLLGWKQGDEEEKWAEKAVDALVKKLKKKKGAMEELEKALSCPGQPSNCVTIPRSLDGRLQVSHRKGLPHVIYCRVWRWPDLQSHHELKPLECCEFPFGSKQKEVCINPYHYKRVESPVLPPVLVPRHSEYNPQHSLLAQFRNLGQNEPHMPLNATFPDSFQQPNSHPFPHSPNSSYPNSPGSSSSTYPHSPTSSDPGSPFQMPADTPPPAYLPPEDPMTQDGSQPMDTNMMAPPLPSEINRGDVQAVAYEEPKHWCSIVYYELNNRVGEAFHASSTSVLVDGFTDPSNNKNRFCLGLLSNVNRNSTIENTRRHIGKGVHLYYVGGEVYAECLSDSSIFVQSRNCNYHHGFHPTTVCKIPSGCSLKIFNNQEFAQLLAQSVNHGFETVYELTKMCTIRMSFVKGWGAEYHRQDVTSTPCWIEIHLHGPLQWLDKVLTQMGSPHNPISSVS
notes: not shown: Flag tag
As for B1, the binding result is “no binding”.

These data come from patent publication US20030049246A1 (published 2003).
